Substrate: O=[N+]([O-])c1ccc(O[C@@H]2O[C@H](CO)[C@@H](O)[C@H](O)[C@H]2O)cc1
Test: purified protein
Assay type: biochemical, Bacillus tequilensis
Conditions: pH 5.0 acetate buffer, 50 °C, pNPG 2–20 mM, no metal or NAD cofactor mentioned

Row | Protein | Km | kcat/Km
1 | Bteqβgluc (pPIC-Bteqβgluc) (Bacillus tequilensis) (protein, full-length ORF (1,329 bp; 443 residues) in pPIC9K, secreted from Pichia pastoris GS115, purified by anion exchange; no His tag mentioned) MTKGLKIVTIGGGSSYTPVLVEGFIKRYDELPVRELWLVDIPEGEEKLNIVGTLAKRMVEKAGVPIDIHLTPDRRKALKDADFVTTQFRVGLLQARAKDERIPLKYGVIGQETNGPGGLFKGLRTIPVILEIAKDIEELCPNAWLVNFTNPAGMVTEALLRYSNLKKVVGLCNVPIGIKMGVAKALDVDVDRVEVQFAGLNHMVFGLDVFLDGVSVKEQVIEAMGDPKNAMTMKNTSGAEWEPDFLKALNVIPCGYHRYYFKTKEMLEHELEASQTEGTRAEVVQKVEKELFELYKDPNLAIKPPQLEKRGGAYYSDAACNLISSIYNDKHDIQPVNTINNGAIASIPDDSAVEVNCVMTKTGPKPIAVGDLPVSVRGLVQQIKSFERVAAEAAVTGDYQTALLAMTTNPLVPSDAVAKQILDDMLEAHKAYLPQFFNKIEA | 7.43 mM | 1020 M⁻¹ s⁻¹
2 | Bteqβgluc (pET-Bteqβgluc) (Bacillus tequilensis) (protein, full-length ORF (1,329 bp; 443 residues) in pET-30a(+), His-tagged, E. coli BL21(DE3) pLysS) MTKGLKIVTIGGGSSYTPVLVEGFIKRYDELPVRELWLVDIPEGEEKLNIVGTLAKRMVEKAGVPIDIHLTPDRRKALKDADFVTTQFRVGLLQARAKDERIPLKYGVIGQETNGPGGLFKGLRTIPVILEIAKDIEELCPNAWLVNFTNPAGMVTEALLRYSNLKKVVGLCNVPIGIKMGVAKALDVDVDRVEVQFAGLNHMVFGLDVFLDGVSVKEQVIEAMGDPKNAMTMKNTSGAEWEPDFLKALNVIPCGYHRYYFKTKEMLEHELEASQTEGTRAEVVQKVEKELFELYKDPNLAIKPPQLEKRGGAYYSDAACNLISSIYNDKHDIQPVNTINNGAIASIPDDSAVEVNCVMTKTGPKPIAVGDLPVSVRGLVQQIKSFERVAAEAAVTGDYQTALLAMTTNPLVPSDAVAKQILDDMLEAHKAYLPQFFNKIEA | 8.43 mM | 887 M⁻¹ s⁻¹

Reference: publication PMC7115751, “Identification and functional characterization of a β-glucosidase from Bacillus tequelensis BD69 expressed in bacterial and yeast heterologous systems” (PeerJ, 2020)
